The values that follow come from the DeepSol protein solubility set.

A short description of the series: soluble on expression in E. coli; label from the status in PepcDB or PDB records.
With “MSLTENKGTPEVGWSFDTRYTDLPSMMFSNVEPEPVEAPKLVILNDSLAQSLGLDPVALQHQNSIAVLAGNEVPKGAAPLAQAYAGHQFGHFTMLGDGRAILLGEQITPNGERFDIQLKGSGRTPYSRQGDGRAALGPMLREYIISEAMHALGIPTTRSLAVVTTGESVFRETVLPGAILTRVAASHIRVGTFQFVANAGSEEELKALADYTLARHFPEVEADRENRYLALLQKVIKRQAELIAKWQLVGFIHGVMNTDNMTISGETIDYGPCAFMDVYDPETVFSSIDTRGRYAYGNQPRIGAWNLARFAEALLPLLADDQDEAIKLAEAEISNYAEQFEHHWLNGMRAKLGLFNEESEDLSLIKDLLEVMHKHKADFTNTFRALTFDEQEETGLHDKLEFTEWHERWQARLGRQEQTKDDSHNLMKMSNPAVIPRNHRVEEALEAAVEQEDYQVMERLLKVLANPFAHSPEQKAYAKLPAPCAIPYRTYCGTEGHHHHHH”, the “soluble on expression in E. coli” value is “not soluble”.

For the sequence “MSLTKAQDHDAAVLYGYFRSSASYRVRIALNLKNIIVAQRYVHLRNGEQNLEAFRWINPAGMVPYWSEGEFNLGQSLAIIEYLDETHPEPPLLPKDPKARAIVREIAYAVACDIHPIGNLRILKRLTELGVDEVDRARWSKEWVEQGFAAIEARLAQTPGPFAYGDRPTLADICIVPQIFNARRFDADLAPFERIRQIEAEAMKLDAFVAAEPGRQPDAEGHHHHHH”, the “soluble on expression in E. coli” value is given as “soluble”.

Take “MSLTKIKNIKTKVYQWNGKTVPPKNNFCTNASDILYEKSDAMGSFRFHEWLICEIETDDGVFGIGNAALAPQIVKKTIDTYLKPLVVGEDPFDYAYIWEKMYRRTHAWGRRGIGMIAMSAIDIGIWDILGKITNKPVFKLLGGRTKEKIPVYASKLYSQPLNELQKEAETYKNQGFKMYKMSFGWGPKDGPEGMKKNIDLVEAVREVIGDDSDLMLESYMGWNLDYSKRIIPKLIKFNPRWLEEPVIADDIAGYSELNKMGVIPISGGEHEFNLFGFKQLLDLKAVSYIQYDTNRVGGITAAQKINALAESFQVPVVPHAGQMHNYHLTMANFNCPISEYFPVHDVEVGNELFYYIFEGDPEPKNGNINLDDNIPGLGLKISDKYKSDFNIIDEGHHHHHH”: the “soluble on expression in E. coli” value is on record as “soluble”.

Take “MSLTNHHPSSTGPQHPYRAGWIHFTNVAPILDSLELPPGVTAITGVPTQMNAALLSGEVDIANVSAVEFIRHADTLAALPDFSVAVLGPVYSVNLFHTCPLPELRRVALTSQSAMSVALLEVLLRQKGLSPVLERAEGTAESLLAAGYDGVLRIGDDALREWYGVVGPLTPERTMTSLPHTGRGITVTDLAQEWFDLTGHPFTFAVWAYRKDNPPPAALLQAMREARRRGIGHLAEVSQRHAEKLGLPERVVQHYLWNFRYHLEAPDRLGLREFADLAVPGHAELTFGAREEAEGHHHHHH”: the “soluble on expression in E. coli” value is on record as “soluble”.

In the case of “MSLTNNNHRLISNSFSTYSIDTSRAYENYLTHWTEWKNNRIQEEQRDIAFQRLVSCLQNQETNLDLSELGLTTLPEIPPGIKSINISKNNLSLIPPLPASLTQLNVSYNRLIELPALPQGLKLLNASHNQLITLPTLPISLKELHVSNNQLCSLPVLPELLETLDVSCNGLAVLPPLPFSLQEISAIGNLLSELPPLPHNIHSIWAIDNMLTDIPYLPENLRNGYFDINQISHIPESILNLRNECSIDISDNPLSSHALQSLQRLTSSPDYHGPQIYFSMSDGQQNTLHRPLADAVTAWFPENKQSDVSQIWHAFEHEEHANTFSAFLDRLSDTVSARNTSGFREQVAAWLEKLSASAELRQQSFAVAADATESCEDRVALTWNNLRKTLLVHQASEGLFDNDTGALLSLGREMFRLEILEDIARDKVRTLHFVDEIEVYLAFQTMLAEKLQLSTAVKEMRFYGVSGVTANDLRTAEAMVRSREENEFTDWFSLWGPWHAVLKRTEADRWALAEEQKYEMLENEYPQRVADRLKASGLSGDADAEREAGAQVMRETEQQIYRQLTDEVLALRLPENGSQLHHSEGHHHHHH”, the “soluble on expression in E. coli” value is listed as “soluble”.

Regarding “MSLTNRSGKDFADEKLLTVLAEVERDLEITYDDLQKQAIIGAMNQQFFILTGGPGTGKTTIINGFIETYARLHQLDLDPDHYNDDVFPILLAAPTGRASRRMNELTGLPAATIHRHLGLGQDEAEDALGNELSGALLIVDEFSMVDTWLANKLFQAIPGSMKVLLVGDADQLPSVGPGQIFADLLKIPEIPSVKLDKIFRQGDDSTITDLAHHIKDGQLPSDFTAKKPDRSYFEVSANFVPQMVEQIASAWQKRGNNPFELQILAPMYKGMAGINAMNVLLQNLFNPLNDRLEFALGDMKFREGDKVLHLVNDAEANVFNGDLGQIVELIAAKYTDSKQDELVMDFDGQELTYPRAEWYKITLAYAMSIHKSQGSEFSTVIVPMVSSYSRMLERNLLYTAITRAKQSLILLGEERAFAQAVAREGANRKTYLIERFMGENEGHHHHHH”, the “soluble on expression in E. coli” value was “not soluble”.

On to “MSLTPDLLNFKKGWMSILDEPGEPPSPSLTTTSTSQWKKHWFVLTDSSLKYYRDSTAEEADELDGEIDLRSCTDVTEYAVQRNYGFQIHTKDAVYTLSAMTSGIRRNWIEALRKTVRPTSAPDVTEGHHHHHH”, for which the “soluble on expression in E. coli” value is on record as “soluble”.

As to “MSLTPVLDKIDSDVSAATDRLLELLRIPSISTDPAYKADCDAAADWLVKDLNSIGIKAEKRETPGHPMVVGHVGEENTKGPHLLFYGHYDVQPVDPLNLWNTPPFEPQLEETPNGTVIRGRGASDDKGQLMTFVEACRAWQAVHGTLPCRITFFFEGEEESGSPSLIPFLEAAKEELSADIALICDTSMVARGVPSVASQLRGMMKDEFTLIGPKIDLHSGHYGGPGLNPLREISHIIASFHDPDTGAVAVEGFYEGVPEVPADILRQWEGCGFDEKDYLSNAGYTEAHGEKKYSTLEQQWARPTLEINGLWGGYQGAGTKTVIPSEAHCKITCRLVGDMDPADLRQKIRKHVEDRLPTDCTVKWDLDLDGAPAYVIDTTRPEFEAARGALTEEWNREAVFSGMGGSIPVAGYFKSILGMDAMLIGFANEDDAIHSPNEKYDLESFHKGIRSWARVLDALSKA”, the “soluble on expression in E. coli” value is reported as “soluble”.

In the case of “MSLTRIQLVISDVDGTLVTTDKRLTDRARDAVSRLEASGVGFTLTSSRPPVGMRMYSDPLGITLPLGPFNGSSIVTPTLDVLEQHLIPDSAATISIELFERSGIDIWLFTNDNWYIRRDDGKYVVHEERTIRFSPTMAEDLTPFAGKACKIVGVSADFALLKRCEPELQAALGDRALAVRSQDYYLDVTPPGRSKGTFVATMAERLGIAADAIATIGDMQNDLPMFGVSGLPIAMGNAADDIKQQAAHVTGRNDDDGFAAAIDFILEHNARVGEGHHHHHH”, the “soluble on expression in E. coli” value was “soluble”.

For “MSLTSEEERAEQAMAAISQIEPTRRLFVWTLTHGIVEYGSARAPAQHNTVSPQAAIEWVVRRGEPGIFIFKDLHPFIDLAPVKRWLRDAVAGFKGTDKVLVLMSPIQQIPTELEKEVVVVEFPLPGPGELNELLNVHLSQAPDKLRILSDAGREKMVKAALGLTKDEADKVYRKAEVVSGRLTEAEVDIVLSEKKQIIKRNGILEYLEFDDEGHHHHHH”, the “soluble on expression in E. coli” value is on record as “not soluble”.

For “MSLTSLVSAVGSHHVTTDPDVLAGRSVDHTGRYRGRASALVRPGSAEEVAEVLRVCRDAGAYVTVQGGRTSLVAGTVPEHDDVLLSTERLCVVSDVDTVERRIEIGAGVTLAAVQHAASTAGLVFGVDLSARDTATVGGMASTNAGGLRTVRYGNMGEQVVGLDVALPDGTVLRRHSRVRRDNTGYDLPALFVGAEGTLGVITALDLRLHPTPSHRVTAVCGFAELAALVDAGRMFRDVEGIAALELIDGRAAALTREHLGVRPPVEADWLLLVELAADHDQTDRLADLLGGARMCGEPAVGVDAAAQQRLWRTRESLAEVLGVYGPPLKFDVSLPLSAISGFARDAVALVHRHVPDSPEALPLLFGHIGEGNLHLNVLRCPPDREPALYAKMMGLIAECGGNVSSEHGVGSRKRAYLGMSRQANDVAAMRRVKAALDPTGYLNAAVLFDEGHHHHHH”, the “soluble on expression in E. coli” value was “not soluble”.
